Key:
Experiment in all cases: SPR
[1] = molecular target: recombinant human laminin-521 (human, UniProt O15230 36-3695; P55268 33-1798; P11047 34-1609)
[2] = molecular target: T1, recombinant laminin LAMA3_(2928–3150) protein (human, UniProt Q16787 2928-3150)
T1 chain: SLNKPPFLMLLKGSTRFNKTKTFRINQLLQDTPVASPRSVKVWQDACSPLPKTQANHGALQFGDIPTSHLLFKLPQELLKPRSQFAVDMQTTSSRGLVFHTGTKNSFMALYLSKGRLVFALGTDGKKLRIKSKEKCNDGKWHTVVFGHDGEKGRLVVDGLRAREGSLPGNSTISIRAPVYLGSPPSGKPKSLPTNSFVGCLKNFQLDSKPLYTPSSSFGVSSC

[3] = molecular target: T1, recombinant laminin LAMA3_(2928–3150) …

B1: platelet-derived growth factor PDGF-BB (ligand)
chain: SLGSLTIAEPAMIAECKTRTEVFEISRRLIDRTNANFLVWPPCVEVQRCSGCCNNRNVQCRPTQVQLRPVQVRKIEIVRKKPIFKKATVTLEDHLACKCETVAAARPVT
B1 showed a koff [1] of 0.00497 s⁻¹, a koff [2] of 0.0136 s⁻¹ and a Kd [3] of 12.1 nM.

B2: placental growth factor (PlGF)-2 (ligand)
chain: LPAVPPQQWALSAGNGSSEVEVVPFQEVWGRSYCRALERLVDVVSEYPSEVEHMFSPSCVSLLRCTGCCGDENLHCVPVETANVTMQLLKIRSGDRPSYVELTFSQHVRCECRPLREKMKPERRRPKGRGKRRREKQRPTDCHLCGDAVPRR
B2 showed a koff [1] of 0.0246 s⁻¹.

B3: vascular endothelial cell growth factor VEGF-A165 (ligand)
chain: APMAEGGGQNHHEVVKFMDVYQRSYCHPIETLVDIFQEYPDEIEYIFKPSCVPLMRCGGCCNDEGLECVPTEESNITMQIMRIKPHQGQHIGEMSFLQHNKCECRPKKDRARQENPCGPCSERRKHLFVQDPQTCKCSCKNTDSRCKARQLELNERTCRCDKPRR
Work on B3 yielded a koff [1] of 0.00324 s⁻¹, a koff [2] of 0.00663 s⁻¹ and a Kd [3] of 1.47 nM.

Reference: PMC5986797 (2018)
